What was measured:
[1] = target: 16 unique Boskar4 variants displayed on E. coli; experiment: flow cytometry on cells
[2] = target: bv2 displayed on E. coli (Intimin fusion); experiment: flow cytometry on cells

fold increase of expression-normalized binding over Boskar4 [1]: 3 fold | fold increase of expression-normalized binding over Boskar4 [2]: 37 fold
B1: biotinylated recombinant human G-CSFR (BioGCSFR) (receptor)
chain: ECGHISVSAPIVHLGDPITASCIIKQNCSHLDPEPQILWRLGAELQPGGRQQRLSDGTQESIITLPHLNHTQAFLSCCLNWGNSLQILDQVELRAGYPPAIPHNLSCLMNLTTSSLICQWEPGPETHLPTSFTLKSFKSRGNCQTQGDSILDCVPKDGQSHCCIPRKHLLLYQNMGIWVQAENALGTSMSPQLCLDPMDVVKLEPPMLRTMDPSPEAAPPQAGCLQLCWEPWQPGLHINQKCELRHKPQRGEASWALVGPLPLEALQYELCGLLPATAYTLQIRCIRWPLPGHWSDWSPSLELRTTERAPTVRLDTWWRQRQLDPRTVQLFWKPVPLEEDSGRIQGYVVSWRPSGQAGAILPLCNTTELSCTFHLPSEAQEVALVAYNSAGTSRPTPVVFSESRGPALTRLHAMARDPHSLWVGWEPPNPWPQGYVIEWGLGPPSASNSNKTWRMEQNGRATGFLLKENIRPFQLYEIIVTPLYQDTMGPSQHVYAYSQEMAPSHAPELHLKHIGKTWAQLEWVPEPPELGKSPLTHYTIFWTNAQNQSFSAILNASSRGFVLHGLEPASLYHIHLMAASQAGATNSTVLTLMTLTPEGSELH
modifications: biotin (Biotin-NHS, 1:20 molar ratio G-CSFR:Biotin-NHS)
